The record followed here is publication PMC12249877, “AlphaFold 3-Assisted Deciphering of the DNA Recognition by DREB1 Transcription Factors in Rice”.

One series has as its target OsDREB1A-DBD V64A (Oryza sativa (rice), UniProt Q64MA1 32-103, V64A). Briefly: EMSA; 0.6 uM protein; EMSA: 0.01 uM FAM-dsDNA, 50 mM NaH2PO4, 150 mM NaCl, 5 mM DTT, 2% glycerol, pH 6.8, 15 min, room temperature; 12% native PAGE in 0.5x TBE. The following applies: protein: recombinant; tags: C-terminal His-tag (pET28); blunt. Background: Mobility shift assays separate free from complexed probe on a gel.

In the next series the target is OsDREB1A-DBD F43G (Oryza sativa (rice), UniProt Q64MA1 32-103, F43G). The description is as above. The following applies: protein: recombinant; tags: C-terminal His-tag (pET28); blunt.
Chain of OsDREB1A-DBD F43G (Q64MA1 32-103 F43G): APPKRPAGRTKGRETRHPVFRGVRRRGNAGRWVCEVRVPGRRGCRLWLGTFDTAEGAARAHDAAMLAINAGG

Chain of OsDREB1A-DBD V64A (Q64MA1 32-103 V64A): as the sequence (Q64MA1 32-103 F43G) above, with G12F, V33A counted along it

B1: CRT (dsDNA)
DNA 1: GTACGCCGACACT
DNA 2: AGTGTCGGCGTAC
With B1, the binding result in the series with OsDREB1A-DBD V64A and with OsDREB1A-DBD F43G was “binds” in each case.
